The term stoichiometry N denotes the number of molecules, sites or subunits per partner or assembly.

Here are results for one protein from article PMC4256255 (PLoS Pathogens, 2014).

The data set concerns the molecule itself. The data set is described as follows: SEC-MALS. Background: Size exclusion chromatography separates by hydrodynamic size, large species first.

B1: D8 Δ262 construct (amino acids 1–261, lacking Cys 262) (domain or fragment)
chain: MPQQLSPINIETKKAISNARLKPLDIHYNESKPTTIQNTGKLVRINFKGGYISGGFLPNEYVLSSLHIYWGKEDDYGSNHLIDVYKYSGEINLVHWNKKKYSSYEEAKKHDDGLIIISIFLQVLDHKNVYFQKIVNQLDSIRSANTSAPFDSVFYLDNLLPSKLDYFTYLGTTINHSADAVWIIFPTPINIHSDQLSKFRTLLSSSNHDGKPHYITENYRNPYKLNDDTQVYYSGEIIRAATTSPARENYFMRWLSDLRET
In the case of B1, the “stoichiometry N” value was 6.
